These results are taken from publication PMC2289477.

The assay addresses profilin from bovine brain (profilin of the high-affinity profilactin complex) (bovine (endogenous in bovine brain)) (UniProt P02584).
UniProt P02584, sequence (P02584 whole entry, one chain of several): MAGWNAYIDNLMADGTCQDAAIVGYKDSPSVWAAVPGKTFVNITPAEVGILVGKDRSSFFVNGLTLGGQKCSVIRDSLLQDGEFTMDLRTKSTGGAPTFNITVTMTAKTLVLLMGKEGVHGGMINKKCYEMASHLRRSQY

As for “actin from bovine brain (actin of the high-affinity profilactin complex) (from UniProt P60712 1-375) (natural protein)”, the stoichiometry N (actin/profilin molar ratio) turned out to be 1.
